One block for each binder: values may come before it.
Experiments:
[1] = target: T1, S. cerevisiae wild type Msh2-Msh6 (S. cerevisiae, UniProt P25847 1-964; Q03834 1-1242); assay: SPR; Biacore T100, 25°C; biotinylated 236 bp DNA (GC base pair, central TG mispair or +T insertion, lacO end blocked by 30 nM LacI) on a streptavidin SA chip; 20 nM Msh2-Msh6 or Msh2-Msh3 with 250 µM ATP injected for 100 s, then the same mixture with 40 nM Mlh1-Pms1 or Mlh1-Mlh2 for 150 s; 25 mM Tris-Cl pH 8.0, 4 mM MgCl2, 110 mM NaCl, 0.01% Igepal, 2 mM DTT, 2% glycerol; signal of the MutL homolog on DNA alone …; conditions: both partners purified
T1 construct: Msh2, S. cerevisiae, wild type, from the pET11 MSH2-MSH6 plasmid; Msh6, S. cerevisiae, wild type, from the pET11 MSH2-MSH6 plasmid; also called Msh2-Msh6 heterodimer; source: E. coli BL21 (DE) RIL, pET11 MSH2-MSH6 plasmid, purified according to a previously published procedure

[2] = target: T2, S. cerevisiae Msh2-Msh3 (S. cerevisiae, UniProt P25847 1-964; P25336 1-1018); assay: as above; conditions: both partners purified
T2 construct: Msh2, S. cerevisiae, expressed from pRDK354 (pGAL1-10-MSH2 URA3); Msh3, S. cerevisiae, expressed from pRDK1596 (pGAL1-10 MSH3-FLAG LEU2); also called Msh2-Msh3 heterodimer; source: S. cerevisiae RDKY2418 with pRDK354 and pRDK1596, purified as described previously
T2 sequence (P25847 whole entry, chain 1 of 2): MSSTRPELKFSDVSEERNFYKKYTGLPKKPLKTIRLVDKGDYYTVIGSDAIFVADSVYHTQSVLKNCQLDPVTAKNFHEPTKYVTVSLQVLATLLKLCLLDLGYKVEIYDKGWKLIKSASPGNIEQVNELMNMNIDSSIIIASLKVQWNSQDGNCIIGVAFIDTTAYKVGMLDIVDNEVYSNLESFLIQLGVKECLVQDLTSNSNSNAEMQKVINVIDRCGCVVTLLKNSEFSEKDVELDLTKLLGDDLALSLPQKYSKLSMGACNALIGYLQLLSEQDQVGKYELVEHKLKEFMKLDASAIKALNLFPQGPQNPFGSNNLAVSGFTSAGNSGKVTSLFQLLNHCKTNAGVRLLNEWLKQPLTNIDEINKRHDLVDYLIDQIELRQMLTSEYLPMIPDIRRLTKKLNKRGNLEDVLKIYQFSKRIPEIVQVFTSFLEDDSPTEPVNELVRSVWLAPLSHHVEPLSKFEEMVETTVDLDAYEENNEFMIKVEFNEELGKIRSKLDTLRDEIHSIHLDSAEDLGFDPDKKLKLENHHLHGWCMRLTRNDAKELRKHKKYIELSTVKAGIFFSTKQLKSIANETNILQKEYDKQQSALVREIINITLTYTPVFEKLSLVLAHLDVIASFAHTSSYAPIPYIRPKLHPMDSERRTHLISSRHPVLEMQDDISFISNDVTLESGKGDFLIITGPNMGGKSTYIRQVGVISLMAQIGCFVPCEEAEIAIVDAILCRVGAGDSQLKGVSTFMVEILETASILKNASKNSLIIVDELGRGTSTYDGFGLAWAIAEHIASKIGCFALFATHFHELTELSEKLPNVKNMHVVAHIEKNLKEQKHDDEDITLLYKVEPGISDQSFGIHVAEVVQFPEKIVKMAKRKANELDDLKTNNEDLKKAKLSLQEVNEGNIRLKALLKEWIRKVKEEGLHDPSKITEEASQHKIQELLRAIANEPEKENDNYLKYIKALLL
T2 sequence (P25336 whole entry, chain 2 of 2): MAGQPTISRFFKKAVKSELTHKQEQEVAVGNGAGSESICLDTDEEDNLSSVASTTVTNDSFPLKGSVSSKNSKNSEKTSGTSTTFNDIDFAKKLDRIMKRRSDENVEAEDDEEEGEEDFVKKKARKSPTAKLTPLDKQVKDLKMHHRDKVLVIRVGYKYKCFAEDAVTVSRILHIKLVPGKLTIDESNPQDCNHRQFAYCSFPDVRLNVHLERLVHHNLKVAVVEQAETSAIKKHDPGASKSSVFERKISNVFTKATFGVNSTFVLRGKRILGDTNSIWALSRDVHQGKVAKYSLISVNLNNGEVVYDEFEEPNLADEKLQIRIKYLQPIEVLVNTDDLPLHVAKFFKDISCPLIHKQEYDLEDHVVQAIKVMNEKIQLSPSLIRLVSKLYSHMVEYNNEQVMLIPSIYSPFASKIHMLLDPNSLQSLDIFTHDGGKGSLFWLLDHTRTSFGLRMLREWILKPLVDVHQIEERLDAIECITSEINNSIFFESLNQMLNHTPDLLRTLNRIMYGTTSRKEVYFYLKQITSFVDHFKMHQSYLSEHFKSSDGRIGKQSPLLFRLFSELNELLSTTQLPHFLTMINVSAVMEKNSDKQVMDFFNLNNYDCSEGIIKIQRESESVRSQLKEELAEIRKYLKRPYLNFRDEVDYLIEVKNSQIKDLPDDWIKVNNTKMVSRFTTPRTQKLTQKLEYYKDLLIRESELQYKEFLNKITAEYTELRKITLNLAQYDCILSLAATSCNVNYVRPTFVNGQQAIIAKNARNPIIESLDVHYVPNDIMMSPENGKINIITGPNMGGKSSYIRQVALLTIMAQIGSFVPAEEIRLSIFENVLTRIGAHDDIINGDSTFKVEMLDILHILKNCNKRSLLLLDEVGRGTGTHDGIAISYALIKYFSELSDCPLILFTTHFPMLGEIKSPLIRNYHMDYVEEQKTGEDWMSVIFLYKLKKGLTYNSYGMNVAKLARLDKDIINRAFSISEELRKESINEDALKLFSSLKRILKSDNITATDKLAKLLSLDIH

T1 sequence (P25847 whole entry, chain 1 of 2): as the sequence (P25847 whole entry, chain 1 of 2) above
T1 sequence (Q03834 whole entry, chain 2 of 2): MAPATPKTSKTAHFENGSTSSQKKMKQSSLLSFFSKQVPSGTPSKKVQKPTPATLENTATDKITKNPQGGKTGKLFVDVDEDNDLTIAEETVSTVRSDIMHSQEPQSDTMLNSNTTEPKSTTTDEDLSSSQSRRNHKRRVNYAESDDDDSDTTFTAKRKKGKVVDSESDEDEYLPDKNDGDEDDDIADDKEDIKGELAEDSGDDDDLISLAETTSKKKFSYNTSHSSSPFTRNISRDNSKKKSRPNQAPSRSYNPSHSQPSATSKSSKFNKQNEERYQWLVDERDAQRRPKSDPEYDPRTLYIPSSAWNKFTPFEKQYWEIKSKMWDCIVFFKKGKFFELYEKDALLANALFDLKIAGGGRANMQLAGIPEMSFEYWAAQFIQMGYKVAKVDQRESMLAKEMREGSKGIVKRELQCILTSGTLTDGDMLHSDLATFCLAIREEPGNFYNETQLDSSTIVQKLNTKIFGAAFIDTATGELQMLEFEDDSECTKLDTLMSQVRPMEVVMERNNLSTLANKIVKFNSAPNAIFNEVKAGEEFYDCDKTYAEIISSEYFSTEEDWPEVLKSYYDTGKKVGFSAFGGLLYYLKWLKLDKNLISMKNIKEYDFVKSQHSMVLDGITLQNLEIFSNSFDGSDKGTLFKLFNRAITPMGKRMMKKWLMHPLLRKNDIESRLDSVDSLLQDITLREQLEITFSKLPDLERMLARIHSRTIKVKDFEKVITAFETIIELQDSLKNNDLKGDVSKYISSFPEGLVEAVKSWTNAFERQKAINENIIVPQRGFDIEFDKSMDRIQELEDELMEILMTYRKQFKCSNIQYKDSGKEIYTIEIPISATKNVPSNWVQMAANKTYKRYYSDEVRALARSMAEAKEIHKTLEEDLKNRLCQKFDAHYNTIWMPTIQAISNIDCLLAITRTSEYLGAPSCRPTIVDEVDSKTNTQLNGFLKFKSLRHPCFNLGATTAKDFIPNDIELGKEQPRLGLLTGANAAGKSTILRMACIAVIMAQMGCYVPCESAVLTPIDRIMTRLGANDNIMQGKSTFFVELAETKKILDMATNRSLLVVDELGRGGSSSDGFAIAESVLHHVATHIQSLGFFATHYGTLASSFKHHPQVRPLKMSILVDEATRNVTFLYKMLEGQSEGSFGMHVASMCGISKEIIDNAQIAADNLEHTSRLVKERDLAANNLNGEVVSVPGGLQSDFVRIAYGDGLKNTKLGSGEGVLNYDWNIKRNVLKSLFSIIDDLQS

- binding result [1]: binds
- binding result [2]: binds
B1: S. cerevisiae Mlh1-Pms1 complex (complex)
chain 1: MSLRIKALDASVVNKIAAGEIIISPVNALKEMMENSIDANATMIDILVKEGGIKVLQITDNGSGINKADLPILCERFTTSKLQKFEDLSQIQTYGFRGEALASISHVARVTVTTKVKEDRCAWRVSYAEGKMLESPKPVAGKDGTTILVEDLFFNIPSRLRALRSHNDEYSKILDVVGRYAIHSKDIGFSCKKFGDSNYSLSVKPSYTVQDRIRTVFNKSVASNLITFHISKVEDLNLESVDGKVCNLNFISKKSISPIFFINNRLVTCDLLRRALNSVYSNYLPKGNRPFIYLGIVIDPAAVDVNVHPTKREVRFLSQDEIIEKIANQLHAELSAIDTSRTFKASSISTNKPESLIPFNDTIESDRNRKSLRQAQVVENSYTTANSQLRKAKRQENKLVRIDASQAKITSFLSSSQQFNFEGSSTKRQLSEPKVTNVSHSQEAEKLTLNESEQPRDANTINDNDLKDQPKKKQKLGDYKVPSIADDEKNALPISKDGYIRVPKERVNVNLTSIKKLREKVDDSIHRELTDIFANLNYVGVVDEERRLAAIQHDLKLFLIDYGSVCYELFYQIGLTDFANFGKINLQSTNVSDDIVLYNLLSEFDELNDDASKEKIISKIWDMSSMLNEYYSIELVNDGLDNDLKSVKLKSLPLLLKGYIPSLVKLPFFIYRLGKEVDWEDEQECLDGILREIALLYIPDMVPKVDTSDASLSEDEKAQFINRKEHISSLLEHVLFPCIKRRFLAPRHILKDVVEIANLPDLYKVFERC
chain 2: MTQIHQINDIDVHRITSGQVITDLTTAVKELVDNSIDANANQIEIIFKDYGLESIECSDNGDGIDPSNYEFLALKHYTSKIAKFQDVAKVQTLGFRGEALSSLCGIAKLSVITTTSPPKADKLEYDMVGHITSKTTTSRNKGTTVLVSQLFHNLPVRQKEFSKTFKRQFTKCLTVIQGYAIINAAIKFSVWNITPKGKKNLILSTMRNSSMRKNISSVFGAGGMRGLEEVDLVLDLNPFKNRMLGKYTDDPDFLDLDYKIRVKGYISQNSFGCGRNSKDRQFIYVNKRPVEYSTLLKCCNEVYKTFNNVQFPAVFLNLELPMSLIDVNVTPDKRVILLHNERAVIDIFKTTLSDYYNRQELALPKRMCSQSEQQAQKRLKTEVFDDRSTTHESDNENYHTARSESNQSNHAHFNSTTGVIDKSNGTELTSVMDGNYTNVTDVIGSECEVSVDSSVVLDEGNSSTPTKKLPSIKTDSQNLSDLNLNNFSNPEFQNITSPDKARSLEKVVEEPVYFDIDGEKFQEKAVLSQADGLVFVDNECHEHTNDCCHQERRGSTDTEQDDEADSIYAEIEPVEINVRTPLKNSRKSISKDNYRSLSDGLTHRKFEDEILEYNLSTKNFKEISKNGKQMSSIISKRKSEAQENIIKNKDELEDFEQGEKYLTLTVSKNDFKKMEVVGQFNLGFIIVTRKVDNKYDLFIVDQHASDEKYNFETLQAVTVFKSQKLIIPQPVELSVIDELVVLDNLPVFEKNGFKLKIDEEEEFGSRVKLLSLPTSKQTLFDLGDFNELIHLIKEDGGLRRDNIRCSKIRSMFAMRACRSSIMIGKPLNKKTMTRVVHNLSELDKPWNCPHGRPTMRHLMELRDWSSFSKDYEI
notes: Mlh1, S. cerevisiae, expressed from pRDK573 (pGAL1-10-MLH1 TRP1); Pms1, S. cerevisiae, expressed from pRDK1099 (pGAL1-10-PMS1-FLAG LEU2); also called Mlh1-Pms1 heterodimer

- binding result [1]: binds
- binding result [2]: binds
B2: S. cerevisiae Mlh1-Mlh2 complex (complex)
chain 1: B1 chain 1
chain 2: MTIHQLSPESQWKIVSSSFIYGPVAAVRELLDNSIDSGAKKVFIDVDSTTGGCEYISVKDDGSGVDIIDRPSMCLEYTTSKMSSLGDISILTTLGFRGEALFLLSNLCNQKGSMQVETKTADDVIGEKWLVDSKGGITNGKRYKVSCPVGTTVILRKLLGGLRARYLEISSRPRKTFDELIYLINHYSLIHRNIRFYFSLVSLQKNGAIERKQMQETLDPKISRARSLSLLARLKKPVPLNFIVEENFVIDEKINLDLILPRMVPESDVINIKRRFKFLSVNERALSLNLETGKTISKLLSSIYRDFSLLDPMVWFINLNCDTKLLDVNIEPEKNDVMIKSFEVIFKKIENKLKLLLEERIGIETNMLGDKHVQPSINEKTSPALVIPTPDAENEISKGCGAVSGKDKTDIPQKNSDLIVPTFYDEANLENTTIVAATPSPTKFSEDKALDEQTQLTISSYRSSSSGSMASEDSTNWRHNFQQELSENSEVAGAGSSTLPSSLTYNYIETIPENEDLELSKDASISNPFMITKIRNVNKKLSENLLEAKRTSCGDANKRGMPNERQLSNTEKKELIKLQQTYGKRNNTVDMTIPRNSKKKVTDNYIKKASCMHKTRPKLMHFSEYTNNYVYTLKNEKIVKHDSDNFAKETLWLRSRDDATSPSSSLLQALRAHVKKPGHIEATTNEWCLFTPDSP
notes: Mlh1, S. cerevisiae, expressed from pRDK573 (pGAL1-10-MLH1 TRP1); Mlh2, S. cerevisiae, MLH2 ORF put in place of the PMS1 ORF of pRDK1099, giving pRDK1664 (pGAL1-10-Mlh2-FLAG LEU2); Purified as a preformed complex through the FLAG tag on Mlh2; used at 40 nM in the SPR assay; also called Mlh1-Mlh2 heterodimer

Reference: paper PMC4014439, “Mlh2 Is an Accessory Factor for DNA Mismatch Repair in Saccharomyces cerevisiae” (PLoS Genetics, 2014)
